The results in this text go back to PMC6973308.

The target of test [1] is anti-HER2 (trastuzumab) heavy chain, produced alone. Briefly: HPLC-MS.
The target is the same in test [2]. Briefly: SDS-PAGE.
Test [3] shares this target. Briefly: SEC. A general note: Size exclusion chromatography separates by hydrodynamic size, large species first.
The target of test [4] is anti-HER2 (trastuzumab) light chain, produced alone. Briefly: SEC.
For test [5] the target is unchanged. Briefly: SDS-PAGE.

For orientation: stoichiometry N means a count of units in the complex or per binding partner.

For the substance “anti-HER2 (trastuzumab) heavy chain, produced alone (domain or fragment)”, the stoichiometry N in test [1] and in test [2] was 2 in each case.

In turn, “anti-HER2 (trastuzumab) light chain, produced alone (domain or fragment)” had a % Area of monomer mAb (SEC-HPLC) in test [3] of 90.1 % Area. The substance further showed a stoichiometry N in test [4] of 2. The percent of LC dimers covalently bonded (42 KDa band) in test [5] turned out to be 55%.
